The experiment addresses T1, MUC5AC peptide on HLA-DPA1*01:03 / HLA-DPB1*04:01 (human).
T1 peptide: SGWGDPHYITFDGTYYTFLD
The experiment can be described thus: multimer staining.

B1: 05-MUC5AC4922-4941 (TCR, V domains shown)
Valpha: QTVTQSQPEMSVQEAETVTLSCTYDTSESNYYLFWYKQPPSRQMILVIRQEAYKQQNATENRFSVNFQKAAKSFSLKISDSQLGDTAMYFCAFMKRAETSGSRLTFGEGTQLTVNP
Vbeta: NAGVTQTPKFRVLKTGQSMTLLCAQDMNHEYMYWYRQDPGMGLRLIHYSVGEGTTAKGEVPDGYNVSRLKKQNFLLGLESAAPSQTSVYFCASSYWPTRETQYFGPGTRLLVL
As for B1, the binding result is recorded as “recognises”.

Values taken from US20220275047A1 (published 2022).
